Measured values: publication PMC3670040, “Structure of Lipid Kinase p110β/p85β Elucidates an Unusual SH2-Domain-Mediated Inhibitory Mechanism” (Molecular Cell, 2011)

Tested on: p110β/p85β-nic
Assay: ATPase activity (ADP formation) in the absence of lipid substrate, Transcreener
Type: biochemical, mouse
Settings: 35 nM complex; Figure 1D
Experimental: Figure 1 Inhibition of p110β by p85-Type Regulatory Subunits and Activation of the Complexes by RTK Phosphopeptide (A) Domain organization of p110β and the regulatory subunits p85α, p85β, and p55γ. The color scheme for the domains is used for all figures, unless otherwise stated. […] The inhibition is released upon addition of the 10 μM PDGFR pY2. […] The y axis is expressed as a change in fluorescence polarization (ΔmP), which is obtained by subtracting the observed polarization for the construct at a given enzyme concentration from the maximum fluorescence polarization for that construct. The plateau in these assays arises due to the competitive nature of the ADP detection system, based on displacement of ADP-Alexa 633 tracer from the ADP^2-antibody by ADP generated during the PI3K assay (see Supplemental Experimental Procedures). All measurements were done in triplicates, and the error bars indicate the standard error of the mean (SEM). […]
The lipid kinase activity was determined using the Transcreener ADP2 FP Assay (BellBrook Labs, Madison, WI) according to manufacturer‟s specifications. This non-radioactive assay measures activity by quantitating the amount of ADP formed. The ADP formed by PI3K competes with fluorescent ADP tracer for binding to an anti-ADP antibody, thereby decreasing fluorescence polarization. […]

B1: p110β-ΔCter/nic: truncation mutant lacking 17 residues from the p110β C terminus; human ΔCter (1-1053) used in cells (protein, UniProt P42338 1-1053, looked up, fragment)
chain: MCFSFIMPPAMADILDIWAVDSQIASDGSIPVDFLLPTGIYIQLEVPREATISYIKQMLWKQVHNYPMFNLLMDIDSYMFACVNQTAVYEELEDETRRLCDVRPFLPVLKLVTRSCDPGEKLDSKIGVLIGKGLHEFDSLKDPEVNEFRRKMRKFSEEKILSLVGLSWMDWLKQTYPPEHEPSIPENLEDKLYGGKLIVAVHFENCQDVFSFQVSPNMNPIKVNELAIQKRLTIHGKEDEVSPYDYVLQVSGRVEYVFGDHPLIQFQYIRNCVMNRALPHFILVECCKIKKMYEQEMIAIEAAINRNSSNLPLPLPPKKTRIISHVWENNNPFQIVLVKGNKLNTEETVKVHVRAGLFHGTELLCKTIVSSEVSGKNDHIWNEPLEFDINICDLPRMARLCFAVYAVLDKVKTKKSTKTINPSKYQTIRKAGKVHYPVAWVNTMVFDFKGQLRTGDIILHSWSSFPDELEEMLNPMGTVQTNPYTENATALHVKFPENKKQPYYYPPFDKIIEKAAEIASSDSANVSSRGGKKFLPVLKEILDRDPLSQLCENEMDLIWTLRQDCREIFPQSLPKLLLSIKWNKLEDVAQLQALLQIWPKLPPREALELLDFNYPDQYVREYAVGCLRQMSDEELSQYLLQLVQVLKYEPFLDCALSRFLLERALGNRRIGQFLFWHLRSEVHIPAVSVQFGVILEAYCRGSVGHMKVLSKQVEALNKLKTLNSLIKLNAVKLNRAKGKEAMHTCLKQSAYREALSDLQSPLNPCVILSELYVEKCKYMDSKMKPLWLVYNNKVFGEDSVGVIFKNGDDLRQDMLTLQMLRLMDLLWKEAGLDLRMLPYGCLATGDRSGLIEVVSTSETIADIQLNSSNVAAAAAFNKDALLNWLKEYNSGDDLDRAIEEFTLSCAGYCVASYVLGIGDRHSDNIMVKKTGQLFHIDFGHILGNFKSKFGIKRERVPFILTYDFIHVIQQGKTGNTEKFGRFRQCCEDAYLILRRHGNLFITLFALMLTAGLPELTSVKDIQYLKDSLALGKSEEEALKQFKQKFDEALRESW
In the case of B1, the “ATPase activity in the absence of lipid substrate” value is reported as “increased”.
